Sequences and labels used below:
T1: EsCas13d, nuclease-dead (Eubacterium siraeum, UniProt B0MS50, R295A;H300A;R849A;H854A)
T1 sequence: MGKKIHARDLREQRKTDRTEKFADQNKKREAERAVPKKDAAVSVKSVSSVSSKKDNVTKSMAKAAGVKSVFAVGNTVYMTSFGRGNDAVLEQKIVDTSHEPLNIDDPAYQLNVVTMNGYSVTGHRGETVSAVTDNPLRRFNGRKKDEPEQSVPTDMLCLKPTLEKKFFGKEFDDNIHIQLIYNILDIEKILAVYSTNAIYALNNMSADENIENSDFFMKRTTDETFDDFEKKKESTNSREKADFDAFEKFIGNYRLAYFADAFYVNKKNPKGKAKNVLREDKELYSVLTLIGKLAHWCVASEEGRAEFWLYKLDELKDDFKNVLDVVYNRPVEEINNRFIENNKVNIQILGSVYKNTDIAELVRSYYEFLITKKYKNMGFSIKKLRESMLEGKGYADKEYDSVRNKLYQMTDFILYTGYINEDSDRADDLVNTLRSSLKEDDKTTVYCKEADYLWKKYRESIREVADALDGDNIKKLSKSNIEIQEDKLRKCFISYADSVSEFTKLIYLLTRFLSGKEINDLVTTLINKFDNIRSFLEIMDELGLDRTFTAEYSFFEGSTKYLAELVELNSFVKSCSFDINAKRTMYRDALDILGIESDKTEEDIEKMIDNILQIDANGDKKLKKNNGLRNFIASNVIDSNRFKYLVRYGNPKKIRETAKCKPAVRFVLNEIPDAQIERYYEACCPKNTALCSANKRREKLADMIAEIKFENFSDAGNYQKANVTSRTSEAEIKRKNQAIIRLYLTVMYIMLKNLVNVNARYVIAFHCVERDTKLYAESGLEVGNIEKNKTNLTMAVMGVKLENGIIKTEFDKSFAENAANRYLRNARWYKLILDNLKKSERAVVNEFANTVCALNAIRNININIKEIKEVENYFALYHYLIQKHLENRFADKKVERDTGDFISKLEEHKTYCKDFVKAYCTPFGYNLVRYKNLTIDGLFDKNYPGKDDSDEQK

B1: target 1 A9G,A18U (mixed)
RNA 1: CACCCGUGCAAAAAUGCAGGGGUCUAAAACUGAGCGGAUAACCUCUCUAUGG
RNA 2: GGGAAUGGAUCCACAUCUACGAAUUCGUACCAUUGAGAGGUUGUCCGCUCACCGAGAUCGGAAGAGCACACGU
B2: target 1 U10G,A18U (mixed)
RNA 1: B1 RNA 1
RNA 2: B1 RNA 2 with U42G, G43A
B3: target 1 C6U,U8G (mixed)
RNA 1: B1 RNA 1
RNA 2: B1 RNA 2 with U34A, G43A, U44G, C46U
B4: target 1 insU 3' of 14,insC 3' of 5 (mixed)
RNA 1: B1 RNA 1
RNA 2: GGGAAUGGAUCCACAUCUACGAAUUCGUACCAUAGAGAUGGUUAUCCGCCUCACCGAGAUCGGAAGAGCACACGU
B5: target 3 insC 3' of 8,insC 3' of 7 (mixed)
RNA 1: CACCCGUGCAAAAUUGCAGGGGUCUAAAACGACCUGAAUAUUUCAGAUCAAA
RNA 2: GGGAAUGGAUCCACAUCUACGAAUUCGUUUUUGAUCUGAAAUAUCUCCAGGUCUGCAGAUCGGAAGAGCACACGU
B6: target 3 insA 3' of 8,insG 3' of 5 (mixed)
RNA 1: B5 RNA 1
RNA 2: B5 RNA 2 with C45A, C48A, A49G
B7: target 3 U2A,G3A (mixed)
RNA 1: B5 RNA 1
RNA 2: GGGAAUGGAUCCACAUCUACGAAUUCGUUUUUGAUCUGAAAUAUUCAGAACUGCAGAUCGGAAGAGCACACGU
B8: target 3 U8G (mixed)
RNA 1: B5 RNA 1
RNA 2: B7 RNA 2 with U44G, A49G, A50U
B9: target 3 insC 3' of 9,insG 3' of 6 (mixed)
RNA 1: B5 RNA 1
RNA 2: B5 RNA 2 with U44C, C45U, C48G
B10: target 3 C1U,C16U (mixed)
RNA 1: B5 RNA 1
RNA 2: B7 RNA 2 with C36U, A49G, A50U, C51U
B11: target 3 C1G,C6A (mixed)
RNA 1: B5 RNA 1
RNA 2: B7 RNA 2 with C46A, A49G, A50U, C51G
B12: target 3 insG 3' of 7 (mixed)
RNA 1: B5 RNA 1
RNA 2: GGGAAUGGAUCCACAUCUACGAAUUCGUUUUUGAUCUGAAAUAUUGCAGGUCUGCAGAUCGGAAGAGCACACGU
B13: target 3 G4C,C6G (mixed)
RNA 1: B5 RNA 1
RNA 2: B7 RNA 2 with C46G, G48C, A49G, A50U
B14: target 3 C6A,U22C (mixed)
RNA 1: B5 RNA 1
RNA 2: B7 RNA 2 with U30C, C46A, A49G, A50U
B15: target 3 A18G,U22C (mixed)
RNA 1: B5 RNA 1
RNA 2: B7 RNA 2 with U30C, A34G, A49G, A50U
B16: target 3 insU 3' of 14,insA 3' of 3 (mixed)
RNA 1: B5 RNA 1
RNA 2: B5 RNA 2 with A39U, U42A, A43U, U44A, C45U, C48A, A49G, G51A
B17: target 3 insC 3' of 19,insU 3' of 5 (mixed)
RNA 1: B5 RNA 1
RNA 2: GGGAAUGGAUCCACAUCUACGAAUUCGUUUUUGCAUCUGAAAUAUUCAUGGUCUGCAGAUCGGAAGAGCACACGU
B18: target 3 insA 3' of 14 (mixed)
RNA 1: B5 RNA 1
RNA 2: B12 RNA 2 with U42A, A43U, U44A, G46U
B19: target 3 C1G,U8G (mixed)
RNA 1: B5 RNA 1
RNA 2: B7 RNA 2 with U44G, A49G, A50U, C51G
B20: target 3 U2G,U21C (mixed)
RNA 1: B5 RNA 1
RNA 2: B7 RNA 2 with U31C, A49G, A50G
B21: target 3 A12G,U22C (mixed)
RNA 1: B5 RNA 1
RNA 2: B7 RNA 2 with U30C, A40G, A49G, A50U
B22: target 3 U2G,A12G (mixed)
RNA 1: B5 RNA 1
RNA 2: B7 RNA 2 with A40G, A49G, A50G
B23: target 3 insU 3' of 22,insG 3' of 6 (mixed)
RNA 1: B5 RNA 1
RNA 2: B17 RNA 2 with G33U, C34G, A48G, U49A
B24: target 3 A5G,U7G (mixed)
RNA 1: B5 RNA 1
RNA 2: B7 RNA 2 with U45G, A47G, A49G, A50U
B25: target 3 insC 3' of 7,insA 3' of 4 (mixed)
RNA 1: B5 RNA 1
RNA 2: B5 RNA 2 with C45U, U46C, C48A, A49G, G50A
B26: target 3 C6A (mixed)
RNA 1: B5 RNA 1
RNA 2: B7 RNA 2 with C46A, A49G, A50U
B27: target 3 U22A (mixed)
RNA 1: B5 RNA 1
RNA 2: B7 RNA 2 with U30A, A49G, A50U
B28: target 3 C1A,U22A (mixed)
RNA 1: B5 RNA 1
RNA 2: B7 RNA 2 with U30A, A49G, A50U, C51A
B29: target 3 insU 3' of 14,insU 3' of 5 (mixed)
RNA 1: B5 RNA 1
RNA 2: B17 RNA 2 with C34A, A35U, U36C, C37U, U38G, G39U
B30: target 3 C1U,U22A (mixed)
RNA 1: B5 RNA 1
RNA 2: B7 RNA 2 with U30A, A49G, A50U, C51U
B31: target 3 C1G,U22A (mixed)
RNA 1: B5 RNA 1
RNA 2: B7 RNA 2 with U30A, A49G, A50U, C51G

Where a chain is given by its changes, count along the chain named. In names and notes the source's numbering stands.

For this series, the target named is T1, EsCas13d, nuclease-dead. Briefly: crRNA (strand 1, pre-loaded); Mg2+; 40 mM Tris-HCl pH 7.5, 150 mM NaCl, 6 mM MgCl2, 1 mM DTT, 0.1% Tween-20, 0.2 mg/ml BSA; 25 C; 10 min per concentration, then washed. As to conditions: tags: His6-TwinStrep-SUMO cleaved; N-terminal SNAP kept (SNAP-Surface 488); label: 3' end held by stalled T7 RNA polymerase.
One may read the Kd as the concentration at which binding is half-saturated. Low values mean tighter binding, high ones weaker binding. B1 gave a Kd of 39.7 ± 3.1 nM.

B2 yielded a Kd of 57 ± 9 nM.

With B3, the Kd was 11 ± 0.5 nM.

In turn, B4 gave a Kd of approximately 60 nM.

B5 had a Kd of 77.5 ± 16 nM.

On to B6, for which the Kd worked out at 68 ± 15 nM.

As for B7, the affinity, expressed as Kd, was 38.5 ± 4 nM.

Consider B8, for which binding was put at a Kd of 45 ± 6 nM.

Molecule B9 gave a Kd of 89 ± 23.5 nM.

In turn, B10 returned a Kd of 66.5 ± 15.5 nM.

B11: binding was characterised by a dissociation constant (Kd) of 30.5 ± 5 nM.

In turn, B12 displayed an equilibrium dissociation constant (Kd) of 65.5 ± 13.5 nM.

For the molecule B13, the Kd is 24.1 ± 3.15 nM.

Consider B14, for which the Kd was 49.5 ± 7.5 nM. Against the preceding molecule, the Kd is about 2.1-fold higher.

The molecule B15 displayed a Kd of 13.8 ± 2 nM.

B16 showed a dissociation constant Kd of approximately 100 nM.

B17 registered a Kd of 130 ± 40 nM.

B18 yielded a Kd of 60 ± 12 nM.

Consider B19, for which the Kd was 35 ± 6 nM.

The molecule B20 returned a Kd of 60 ± 24.5 nM.

B21 yielded a Kd of 40.5 ± 8.5 nM.

Regarding B22, the Kd came out at 33.5 ± 6 nM.

Turning to B23, binding was characterised by a dissociation constant (Kd) of 7.7 ± 0.65 nM.

For the molecule B24, the Kd was determined as 44 ± 6 nM.

B25: the Kd is 97 ± 35 nM. Against the preceding molecule, the Kd is about 2.2-fold higher.

B26 yielded a Kd of 36.2 ± 4.1 nM.

The molecule B27 yielded a Kd of 14.8 ± 1.45 nM.

The molecule B28 displayed a Kd of 13.6 ± 1.9 nM.

For B29, the Kd is 83.5 ± 33.5 nM.

B30: the affinity, expressed as Kd, was 25.9 ± 5.5 nM. Compared with the last molecule, the Kd is about 3.2-fold lower.

In turn, B31 came in with a Kd of 25.1 ± 5.2 nM.

The record behind these values is PMC10786891, “Massively parallel profiling of RNA-targeting CRISPR-Cas13d”.
